Test results taken from paper PMC12191217, “Aptamer Development for SARS-CoV-2 and Omicron Variants Using the Spike Protein Receptor Binding Domain as a Potential Diagnostic Tool and Therapeutic Agent”.

Molecular target: SARS-CoV-2 spike RBD (Wuhan-Hu-1), His-tagged (SARS-CoV-2 (Wuhan-Hu-1 strain), UniProt P0DTC2 319-541)
Experiment: BLI; 3 mM MgCl2; 10 mM phosphate pH 7.4, 137 mM NaCl, 2.7 mM KCl, 3 mM MgCl2, 0.01% BSA, 0.002% Tween 20, 25 °C; aptamer 175-1400 nM, n=2
Settings: protein: commercial; tags: His

**Q.** For CACUACCAAGAGUGUGUUAGAGGUACAACAGUACUUUUAA (structured_RNA) [Aptamer 23], which Kd is on record?
**A.** 29300 ± 10400 nM

**Q.** GAUUUUAGUCAUAGUCAGUUAGGUGGUUUACAUCUACUGA (structured_RNA) [Aptamer 11] was tested. Which Kd did it give?
**A.** 425 ± 146 nM

**Q.** How did the Kd turn out when GCUGGUGCUGCAGCUUAUUAUGUGGGUUAUCUUCAACCUA (structured_RNA) [Aptamer 22] was run?
**A.** 5450 ± 1700 nM

**Q.** With GAUGGUAAUGCUGCUAUCAGCGAUUAUGACUACUAUCGUU (structured_RNA) [Aptamer 62] as the binder, how does the Kd read?
**A.** 285 ± 141 nM

**Q.** For GUUUCGGAAGAGACAGGUACGUUAAUAGUUAAUAGCGUAC (structured_RNA) [Aptamer 40], which Kd is on record?
**A.** 571 ± 173 nM
